Molecular target: T1, Cdr2-flag (S. pombe, UniProt P87050 1-775)
T1 sequence (looked up): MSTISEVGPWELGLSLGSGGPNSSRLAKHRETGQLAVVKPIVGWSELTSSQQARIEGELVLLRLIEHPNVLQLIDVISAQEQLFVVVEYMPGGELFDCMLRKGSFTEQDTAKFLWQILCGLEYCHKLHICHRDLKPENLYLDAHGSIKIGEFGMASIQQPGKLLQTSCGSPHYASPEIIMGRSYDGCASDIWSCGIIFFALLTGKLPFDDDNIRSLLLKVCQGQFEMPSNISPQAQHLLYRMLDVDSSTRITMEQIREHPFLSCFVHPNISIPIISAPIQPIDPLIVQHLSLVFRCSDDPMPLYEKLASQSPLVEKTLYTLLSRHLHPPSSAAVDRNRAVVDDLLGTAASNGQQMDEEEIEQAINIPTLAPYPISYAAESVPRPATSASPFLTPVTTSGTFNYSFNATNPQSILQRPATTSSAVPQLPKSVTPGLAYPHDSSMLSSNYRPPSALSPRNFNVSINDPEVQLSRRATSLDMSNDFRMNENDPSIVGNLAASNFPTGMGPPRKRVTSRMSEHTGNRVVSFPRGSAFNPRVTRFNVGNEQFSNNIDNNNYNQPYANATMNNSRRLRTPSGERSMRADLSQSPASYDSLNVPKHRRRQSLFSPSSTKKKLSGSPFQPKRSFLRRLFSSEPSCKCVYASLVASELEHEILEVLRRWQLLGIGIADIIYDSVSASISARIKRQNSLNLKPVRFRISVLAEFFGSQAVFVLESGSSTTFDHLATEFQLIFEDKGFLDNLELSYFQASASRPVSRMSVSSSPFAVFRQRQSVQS
Experiment: co-IP

- fold co-immunoprecipitated against Mid1-myc13: ~2 fold
B1: Mid1–9A-myc13 (natural protein, S. pombe, UniProt P78953 1-920, looked up)
chain: MKEQEFSYREAKDVSLDSKGLENSFLSSPNREKTPLFFEGNSNETSGYDQTKNFTHGDGDMSLGNLSELNVATDLLESLDLRSMYMHGYGHLDSSFSSQHSPDNRKRMSATSVFKRINSEEEGRIPALTYSAGTMNSTSSSTASLKGADIVADYETFNPDQNLAELSFDRSKSSRKRAVEVAEFSRAKTMSPLEYTVQHPYQSHNELSTNPARARAGAVPNLARIPADVKPVPPAHLSASSTVGPRILPSLPKDTTEDNPALERVETTASLDMDYKPLEPLAPIQEAPVEDTSEPFSSVPEATLDDSDISTESLRKKVLAKMEAKRISAGSSYASTLRKVYDFSELSLPTNGKDYDELYLQSSRNSEPEISTIINDSLQQENMDEDISATSIPKSQAAYGHGSVTYHEVPRYNLTSASVGYSISSQRGRIKASSTIDNLSAILSSEDLRHPAMQPVPGTKRTYANYCENEPNKSSQSLVSSESHNVEGWNYSETGTVGFYDPSAEISASIDELRQSTPVARDSELLSRAHAFDLNRLDLPSQDKSTSYEVPNGTENQSPRPVTSLGFVNETFFEEKPKAPLPLGRFYIHLNSILNISISEVHSPIKIIVNTPTQNMQLPWQAVNGNNRLDHDFAFHVDDNFKVSFMFLDIPIEDKSNGSKGVSATKDVSNGKPAETKSKARKFFDKLFNRRKKRKLNKAAAVENSKAKKSVVIKKVSGTATLNLGNVKDSCFGKAFNVEIPIISRGFLEAIPVKINSIGKRTLGNLTLTCLYIPELSVPEQELPFTLEQATMDLRHVRSNYLYNEGYLYRLEDSSIRRRFVVLRSKQLNFYAEKGGQYLDTFQLSKTVVSIPMVNFSEAVSNLGLVAGILATSVDRRHVQLFADSKKVCQKWLQVMNSRSFALDRGTEKLWLQEYVNFMA

From article PMC6424596 (Current biology : CB, 2019)
